Assay results as given in patent US20180318417A1 (COMPASS THERAPEUTICS, published 2018).

Experiments:
[1] = molecular target: T1, Recombinant human PD-1 Fc fusion protein (Sino Biological) (human, UniProt Q15116 25-167); assay: ForteBio Octet BLI; antigen-Fc on Protein A sensor, 100 nM construct
T1 construct: not shown: Fc part of the bought fusion protein
Experimental: (§1) Antigen binding of MIAC constructs were analyzed using ForteBio Octet. […] All antigens were reconstituted in PBS at the final concentration of 0.25 ug/ul. […] Association proceeded by dipping sensors in 100 nM MIAC constructs for 5 minutes and disassociation occurred in blank kinetics buffer for 5 minutes. For CD3 epsilon binding, antigen was immobilized on Ni-NTA sensors; association was performed in 50 nM MIAC constructs. Binding data were analyzed using ForteBio Data Analysis 9.0 software.

[2] = molecular target: T2, Recombinant human CD137 Fc fusion protein (Sino Biological) (human, UniProt Q07011 24-186); assay: ForteBio Octet BLI; antigen-Fc on Protein A sensor, construct in solution
T2 construct: not shown: Fc part of the bought fusion protein

[3] = molecular target: T2, Recombinant human CD137 Fc fusion …; assay: ForteBio Octet BLI; antigen-Fc on Protein A sensor, 100 nM construct
Experimental: as §1

[4] = molecular target: T1, Recombinant human PD-1 Fc fusion …; assay: ForteBio Octet BLI; antigen-Fc on Protein A sensor, construct in solution
[5] = molecular target: T3, Recombinant human Her2 Fc fusion protein (Sino Biological) (human, UniProt P04626 23-652); assay: as above
T3 construct: not shown: Fc part of the bought fusion protein

T1 sequence (Q15116 25-167 limits assumed): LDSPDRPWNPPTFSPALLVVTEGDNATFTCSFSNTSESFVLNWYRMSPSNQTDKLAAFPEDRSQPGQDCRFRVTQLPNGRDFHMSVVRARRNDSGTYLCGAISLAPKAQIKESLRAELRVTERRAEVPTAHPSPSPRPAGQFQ

Kd [1] [nM] | binding result [2] | Kd [3] [nM] | binding result [4] | binding result [5] | Binder
0.12 | no binding (tested: 100 nM) | – | – | – | PID-7 (bispecific Her2/PD-1 MIAC; Pembrolizumab IgG1 with Trastuzumab scFv at the heavy chain C-termini) (bispecific antibody, also called α-Her2/α-PD-1) heavy: not shown light: EIVLTQSPATLSLSPGERATLSCRASKGVSTSGYSYLHWYQQKPGQAPRLLIYLASYLESGVPARFSGSGSGTDFTLTISSLEPEDFAVYYCQHSRDLPLTFGGGTKVEIKRTVAAPSVFIFPPSDEQLKSGTASVVCLLNNFYPREAKVQWKVDNALQSGNSQESVTEQDSKDSTYSLSSTLTLSKADYEKHKVYACEVTHQGLSSPVTKSFNRGEC
– | – | 0.7 | no binding (tested: 100 nM) | no binding (tested: 100 nM) | PID-90 (monospecific anti-CD137; Urelumab Fab domain, human IgG1 constant domain) (antibody, V domains shown, also called PID90 (CD137)) VH: QVQLQQWGAGLLKPSETLSLTCAVYGGSFSGYYWSWIRQSPEKGLEWIGEINHGGYVTYNPSLESRVTISVDTSKNQFSLKLSSVTAADTAVYYCARDYGPGNYDWYFDLWGRGTLVTVSS VL: EIVLTQSPATLSLSPGERATLSCRASQSVSSYLAWYQQKPGQAPRLLIYDASNRATGIPARFSGSGSGTDFTLTISSLEPEDFAVYYCQQRSNWPPALTFGGGTKVEIKR
– | no binding (tested: 100 nM) | – | – | no binding (tested: 100 nM) | PID-2 (monospecific anti-PD-1; Pembrolizumab Fab domain, human IgG1 constant domain) (antibody, V domains shown, also called PID2 (PD-1)) VH: QVQLVQSGVEVKKPGASVKVSCKASGYTFTNYYMYWVRQAPGQGLEWMGGINPSNGGTNFNEKFKNRVTLTTDSSTTTAYMELKSLQFDDTAVYYCARRDYRFDMGFDYWGQGTTVTVSS VL: EIVLTQSPATLSLSPGERATLSCRASKGVSTSGYSYLHWYQQKPGQAPRLLIYLASYLESGVPARFSGSGSGTDFTLTISSLEPEDFAVYYCQHSRDLPLTFGGGTKVEIKR
– | – | 0.23 | no binding (tested: 100 nM) | – | PID-92 (bispecific Her2/CD137 MIAC; Urelumab IgG1 with Trastuzumab scFv at the heavy chain C-termini) (bispecific antibody, also called α-Her2/α-CD137 MIAC; PID92 [Her2/CD137]) heavy: not shown light: not shown
